# Laboratory results: paper PMC6149694, “Engineering the L-Arabinose Isomerase from Enterococcus Faecium for D-Tagatose Synthesis” (Molecules : A Journal of Synthetic Chemistry and Natural …, 2017)
# Where “and” joins values, the source holds several entries; their conditions need not be identical. Identical values can stand only once.
# Target: the molecule itself
# Assay: AUC; sedimentation velocity, 20 °C, 50 mM sodium phosphate buffer pH 7.0, absorbance at 285 nm, c(s) by SEDFIT; distributions shown for 0.43 g L^-1 N-His-L-AI and 0.3 g L^-1 C-His-L-AI; self-association, monomer to oligomers
row,Protein,stoichiometry N
1,"N-terminal His-tagged L-arabinose isomerase (L-AI) from Enterococcus faecium DBFIQ E36 (enzyme, UniProt Q3Y1E5 1-474, looked up, codon-optimised synthetic gene; the construct has 481 aa including the initial methionine (MW 55,036); also called N-His-L-AI; recombinant L-AI; not shown: His6, N-terminal, kept) MLNIGEKEFWFVVGSQHLYGEEALREVKKHAQEMVDELNENGQLPYPIRLQELAVTADTITKIMKEVNYREEVAGVITWMHTFSPAKMWIRGTKLLQKPLLHLATQYNESIPWKTIDMDFMNLNQSAHGDREYGFINARLNKQNKIVVGYWKRPEIQKEIADWMDVAVAYNESFGIKVARFGDNMRNVGVTEGDKVEAQIQFGWTVDYFGIGDLVQVIDRVSDEEVDQLFEEYKELYTFDYGDYEEKTWEEHVKVQAQQEIGIRRFLEEGGYNAFTTNFEDLYGMKQLPGLAVQRLMAEGYGFAGEGDWKTAAIDRLLKIMARGKDTGFMEDYTYELASGQEAILESHMMEVDPTLAATKPRIVVSPLSMGDREDPARLVFDGKAGEGVVVSMADFGTHYKLLINEVEAFEPTTEAPNLPVARVLWKTKPNFHEGVHSWIQAGGGHHTVVSLNLTTDQIETWAKLVELETVVIR",4 and 6
2,"C-terminal His-tagged L-arabinose isomerase (L-AI) from Enterococcus faecium DBFIQ E36 (enzyme, UniProt Q3Y1E5 1-474, looked up, codon-optimised synthetic gene; the construct has 482 aa including the initial methionine (MW 55,221); also called C-His-L-AI; recombinant L-AI; not shown: His6, C-terminal, kept) MLNIGEKEFWFVVGSQHLYGEEALREVKKHAQEMVDELNENGQLPYPIRLQELAVTADTITKIMKEVNYREEVAGVITWMHTFSPAKMWIRGTKLLQKPLLHLATQYNESIPWKTIDMDFMNLNQSAHGDREYGFINARLNKQNKIVVGYWKRPEIQKEIADWMDVAVAYNESFGIKVARFGDNMRNVGVTEGDKVEAQIQFGWTVDYFGIGDLVQVIDRVSDEEVDQLFEEYKELYTFDYGDYEEKTWEEHVKVQAQQEIGIRRFLEEGGYNAFTTNFEDLYGMKQLPGLAVQRLMAEGYGFAGEGDWKTAAIDRLLKIMARGKDTGFMEDYTYELASGQEAILESHMMEVDPTLAATKPRIVVSPLSMGDREDPARLVFDGKAGEGVVVSMADFGTHYKLLINEVEAFEPTTEAPNLPVARVLWKTKPNFHEGVHSWIQAGGGHHTVVSLNLTTDQIETWAKLVELETVVIR",3 and 6
